B1: minF1; the commonest letter at each place (parent)
chain: GAGACCGCAACTGAAAAGTTGTTATCAGAAATGGATGGGTTGAATTTCTGCACGTAGAAGCAAAAGGC

Variants of: B1
Assay: fraction ligated after 30 min (ligated reads / total reads); higher = more ligase activity
Conditions: with F1*subA RNA substrate (template-directed ligation), 42 °C
Summary of the method: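 Oligo-pool templates of minimized ligase ribozyme variants were PCR-amplified, T7-transcribed and gel-purified. Ligated and unligated RNAs were gel-separated, reverse transcribed with barcoded primers, and MiSeq-sequenced; core bases were filtered at quality ≥30. Fraction ligated per variant was ligated reads over total reads.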

Variant | fraction ligated
GAGACCGCAACTGAAAAGTTGTTATCCGAAATGGATGGGTTGATTTTCTGCACGTAGAAGCAAAAGGC [A27C A44T] | 0.441
GAGACCGCAACTGAAAAGTTGTTATCCGAAATGGATGGGTTGACTTTCTGCACGTAGAAGCAAAAGGC [A27C A44C] | 0.244
GAGACCGCAACTGAAAAGTTGTTATCGGAAATGGATGGGTTGAATTTCTGCACGTAGAAGCAAAAGGC [A27G] | 0.803
GAGACCGCAACTGAAAAGTTGTTATCCGAAATGGATGGGTTGAATTTCTGCACGTAGAAGCAAAAGGC [A27C] | 0.694
GAGACCGCAACTGAAAAGTTGTTATTAGAAAAGGATGGGTTGAATTTCTGCACGTAGAAGCAAAAGGC [C26T T32A] | 0.00354
GAGACCGCAACTGAAAAGTTGTTATTAGAAACGGATGGGTTGAATTTCTGCACGTAGAAGCAAAAGGC [C26T T32C] | 0.00511
GAGACCGCAACTGAAAAGTTGTTATTAGAAAGGGATGGGTTGAATTTCTGCACGTAGAAGCAAAAGGC [C26T T32G] | 0.00682
GAGACCGCAACTGAAAAGTTGTTATTAGAAATGAATGGGTTGAATTTCTGCACGTAGAAGCAAAAGGC [C26T G34A] | 0.623
GAGACCGCAACTGAAAAGTTGTTATTAGAAATGTATGGGTTGAATTTCTGCACGTAGAAGCAAAAGGC [C26T G34T] | 0.0063
GAGACCGCAACTGAAAAGTTGTTATTAGAAATGCATGGGTTGAATTTCTGCACGTAGAAGCAAAAGGC [C26T G34C] | 0.00303
GAGACCGCAACTGAAAAGTTGTTATTAGAAATGGAAGGGTTGAATTTCTGCACGTAGAAGCAAAAGGC [C26T T36A] | 0.0132
GAGACCGCAACTGAAAAGTTGTTATTAGAAATGGACGGGTTGAATTTCTGCACGTAGAAGCAAAAGGC [C26T T36C] | 0.00419
GAGACCGCAACTGAAAAGTTGTTATTAGAAATGGAGGGGTTGAATTTCTGCACGTAGAAGCAAAAGGC [C26T T36G] | 0.0188
GAGACCGCAACTGAAAAGTTGTTATCCTAAATGGATGGGTTGAATTTCTGCACGTAGAAGCAAAAGGC [A27C G28T] | 0.628
GAGACCGCAACTGAAAAGTTGTTATCCCAAATGGATGGGTTGAATTTCTGCACGTAGAAGCAAAAGGC [A27C G28C] | 0.61
GAGACCGCAACTGAAAAGTTGTTATCCAAAATGGATGGGTTGAATTTCTGCACGTAGAAGCAAAAGGC [A27C G28A] | 0.503
GAGACCGCAACTGAAAAGTTGTTATCCGAAATGGAGGGGTTGAATTTCTGCACGTAGAAGCAAAAGGC [A27C T36G] | 0.0955
GAGACCGCAACTGAAAAGTTGTTATCCGAAATGGACGGGTTGAATTTCTGCACGTAGAAGCAAAAGGC [A27C T36C] | 0.0483
GAGACCGCAACTGAAAAGTTGTTATCCGAAATGGAAGGGTTGAATTTCTGCACGTAGAAGCAAAAGGC [A27C T36A] | 0.0988
GAGACCGCAACTGAAAAGTTGTTATCCGAAATTGATGGGTTGAATTTCTGCACGTAGAAGCAAAAGGC [A27C G33T] | 0.818

Variant | fraction ligated
GAGACCGCAACTGAAAAGTTGTTATCCGAAATCGATGGGTTGAATTTCTGCACGTAGAAGCAAAAGGC [A27C G33C] | 0.817
GAGACCGCAACTGAAAAGTTGTTATCCGAAATAGATGGGTTGAATTTCTGCACGTAGAAGCAAAAGGC [A27C G33A] | 0.835
GAGACCGCAACTGAAAAGTTGTTATCCGAAATGGATGGGTTGTATTTCTGCACGTAGAAGCAAAAGGC [A27C A43T] | 0.0472
GAGACCGCAACTGAAAAGTTGTTATCCGAAATGGATGGGTTGCATTTCTGCACGTAGAAGCAAAAGGC [A27C A43C] | 0.0394
GAGACCGCAACTGAAAAGTTGTTATCCGAAATGGATGGGTTGGATTTCTGCACGTAGAAGCAAAAGGC [A27C A43G] | 0.0284
GAGACCGCAACTGAAAAGTTGTTATCGGACATGGATGGGTTGAATTTCTGCACGTAGAAGCAAAAGGC [A27G A30C] | 0.803
GAGACCGCAACTGAAAAGTTGTTATCGGAGATGGATGGGTTGAATTTCTGCACGTAGAAGCAAAAGGC [A27G A30G] | 0.824
GAGACCGCAACTGAAAAGTTGTTATCGGATATGGATGGGTTGAATTTCTGCACGTAGAAGCAAAAGGC [A27G A30T] | 0.78
GAGACCGCAACTGAAAAGTTGTTATCCGACATGGATGGGTTGAATTTCTGCACGTAGAAGCAAAAGGC [A27C A30C] | 0.465
GAGACCGCAACTGAAAAGTTGTTATCCGATATGGATGGGTTGAATTTCTGCACGTAGAAGCAAAAGGC [A27C A30T] | 0.403
GAGACCGCAACTGAAAAGTTGTTATCCGAGATGGATGGGTTGAATTTCTGCACGTAGAAGCAAAAGGC [A27C A30G] | 0.759
GAGACCGCAACTGAAAAGTTGTTATCGGAAATGGATGGGTTGATTTTCTGCACGTAGAAGCAAAAGGC [A27G A44T] | 0.774
GAGACCGCAACTGAAAAGTTGTTATCGGAAATGGATGGGTTGACTTTCTGCACGTAGAAGCAAAAGGC [A27G A44C] | 0.69
GAGACCGCAACTGAAAAGTTGTTATCGGAAATGGATGGGTTGAGTTTCTGCACGTAGAAGCAAAAGGC [A27G A44G] | 0.746
GAGACCGCAACTGAAAAGTTGTTATCCGAAATGGATGGGTTAAATTTCTGCACGTAGAAGCAAAAGGC [A27C G42A] | 0.171
GAGACCGCAACTGAAAAGTTGTTATCCGAAATGGATGGGTTTAATTTCTGCACGTAGAAGCAAAAGGC [A27C G42T] | 0.0494
GAGACCGCAACTGAAAAGTTGTTATCCGAAATGGATGGGTTCAATTTCTGCACGTAGAAGCAAAAGGC [A27C G42C] | 0.0124
GAGACCGCAACTGAAAAGTTGTTATCCGGAATGGATGGGTTGAATTTCTGCACGTAGAAGCAAAAGGC [A27C A29G] | 0.61
GAGACCGCAACTGAAAAGTTGTTATCCGTAATGGATGGGTTGAATTTCTGCACGTAGAAGCAAAAGGC [A27C A29T] | 0.501
GAGACCGCAACTGAAAAGTTGTTATCCGCAATGGATGGGTTGAATTTCTGCACGTAGAAGCAAAAGGC [A27C A29C] | 0.623

From the supplement of paper PMC6755084
